B1: S009-F2.16.10 (antibody, human IgG1, kappa, V domains shown)
VH: QVQLQQPGAELIKPGASVKLSCKASGYTFTSYWMHWVKQRPGQGLEWIGIIHPNIGSTNYNERFKSKATLTVDKSSSTAYMQLSSLTSEDSAVYYCARRSSNYGDWYFDVWGTGTTVTVSS
VL: DIVMTQSHRFMSTSVGDRVSITCKASQDVGTSVAWYQQKPGQSPKLLIYWASTQHTGVPDRFTGSGSGTDFTLTINNVQSEDLLDYFCQQYSSYPLTFGAGTKLELKR
notes: human-murine chimeric antibody, human IgG1/kappa constant regions
B2: S009-F1.2.12 (antibody, human IgG1, kappa, V domains shown)
VH: QVQLKQTGPGLVQPSQSLSITCTVSGFSLTNYAVHWVRQSPGKGLEWLGVIWSGGATDYNTVFISRLSISKDNSKSQVFFKVNSLQVDDTAIYYCARTGSGYAMDYWGQGTSVTVSS
VL: DIVLTQSPATLSVTPGDRVSLSCRTSHNVNTYLHWYQQKSHESPRLLIKYASQSISEIPSRFSGSGSGTNFTLSINSVETEDFGMYFCHQTNRWPLTFGAGTKLELKR
notes: as for B1
B3: S009-F2.47.1 (antibody, human IgG1, kappa, V domains shown)
VH: QVQLQQPGAELVKPGASVKLSCKASGYTFTSYWMHWVKQRPGQGLEWIGMIHPNSGSTNYNEKFKSKATLTVDKSSSTAYMQLSSLTSEDSAVYYCARPVVPYWYFDVWGTGTTVTVSS
VL: DIVMTQSQKFMSTTVGDRVSITCKASQNVGTAVAWYQQKPGQSPKLLIYSASNRYTGVPDRFTGSGSGTDFTLTISNMQSEDLADYFCQQSSSYPLTFGAGTKLELKR
notes: as for B1
B4: S009-F2.23.12 (antibody, human IgG1, kappa, V domains shown)
VH: QVQLQQPGTELVKPGASVKLSCKASGYTFTNYWMHWVKQRPGQGLEWIGNINPSNGGPYYNERFRSKATLTVDKSSSTAYMQLSSLTSEDSAVYYCARPYYGSSYGYFDYWGQGTTLTVSS
VL: DIQMTQSPSSLSASLGGKVTITCKASQDINKYIAWYQHKPGKGPRLLIHYTSELQPGIPSRFSGNGSGRDYSFSISNLEPEDIATYYCLQYANPLRTFGGGTKLEIKR
notes: as for B1

How the values were obtained:
[1] = molecular target: T1, human MSLN-FL-his protein (human, UniProt Q13421 296-580); experiment: competitive ELISA; row F1.35.24; note: test concentration or dose not given here
T1 construct: made in HEK293E cells, purified on nickel column; also called hMSLN-FL-his; human MSLN full-length protein; not shown: His tag

[2] = molecular target: T1, human MSLN-FL-his protein; experiment: competitive ELISA; row F1.2.12; note: test concentration or dose not given here
[3] = molecular target: T1, human MSLN-FL-his protein; experiment: competitive ELISA; row Tab107 (conformation); note: test concentration or dose not given here
[4] = molecular target: T1, human MSLN-FL-his protein; experiment: SPR (Biacore), antibody captured on Protein A chip;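 note: measured at 25 °C, analyte injected 240 s in five twofold dilutions from 200 nM, dissociation up to 600 s, double-referenced, fitted with Langmuir 1:1 model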
Protocol: The flow cell was set at 25° C. The sample block was set at 16° C. Both were pretreated with the running buffer. In each cycle, first, the antibody to be tested was captured using the Protein A chip, and then a single concentration of human MSLN-FL-his protein was injected. […] The association was determined by injecting different concentrations of human MSLN-FL-his in solution for 240 s on end, wherein the flow rate was 30 μL/min, and the protein was diluted in a 1:1 dilution ratio from 200 nM (see detailed results for actual concentrations tested) to obtain 5 concentrations in total. The dissociation phase was monitored for up to 600 s and triggered by switching from the sample solution to the running buffer. The surface was regenerated by washing with 10 mM glycine solution (pH 1.5) at a flow rate of 30 μL/min for 30 s. The difference in bulk refractive index was corrected by subtracting the responses obtained from the goat anti-human Fc surface. Blank injections were also subtracted (=double reference). To calculate the apparent KD and other kinetic parameters, the Langmuir 1:1 model was used.

[5] = molecular target: T1, human MSLN-FL-his protein; experiment: competitive ELISA; row F2.13.3; note: test concentration or dose not given here
[6] = molecular target: T1, human MSLN-FL-his protein; experiment: competitive ELISA; row F2.24.10; note: test concentration or dose not given here
[7] = molecular target: T1, human MSLN-FL-his protein; experiment: competitive ELISA; row F2.16.10; note: test concentration or dose not given here
[8] = molecular target: T1, human MSLN-FL-his protein; experiment: competitive ELISA; row F2.39.3; note: test concentration or dose not given here
[9] = molecular target: T1, human MSLN-FL-his protein; experiment: competitive ELISA; row Tab142 (R1); note: test concentration or dose not given here
[10] = molecular target: T1, human MSLN-FL-his protein; experiment: competitive ELISA; row F2.58.8; note: test concentration or dose not given here
[11] = molecular target: T1, human MSLN-FL-his protein; experiment: competitive ELISA; row Tab108 (R3); note: test concentration or dose not given here
[12] = molecular target: T1, human MSLN-FL-his protein; experiment: competitive ELISA; row F2.17.3
Protocol: In order to identify antigen-binding sites of antibodies, MSLN chimeric antibodies were grouped using competitive ELISA.
The chimeric antibodies were diluted to 2 μg/mL with PBS and allowed to coat 96-well high-adsorption ELISA plates at 50 μL/well. After the plates were coated at 4° C. overnight, 250 μL of a blocking buffer (PBS containing 2% (w/w) BSA) was added for two hours of blocking at room temperature. 40 μg/mL of the antibodies to be tested were added, and then the human MSLN-FL-His protein with an EC₈₀ concentration corresponding to each of the antibodies to be tested was added for incubation for 2 h. The plates were washed 5 times with PBS, an HRP-labeled anti-His secondary antibody (purchased from Genescript, Cat. No. A00612) was then added for incubation for 1 h, and the plates were washed 5 times again. A TMB substrate was added at 50 μL/well, and after 10 minutes of incubation at room temperature, a stop solution (1.0 M HCl) was added at 50 μL/well. OD₄₅₀ nm values were read using an ELISA plate reader (Insight, purchased from PerkinElmer), and the competition rate between the antibodies was calculated according to the OD₄₅₀ nm values using a formula.

[13] = molecular target: T1, human MSLN-FL-his protein; experiment: competitive ELISA; row F1.56.1; note: test concentration or dose not given here

T1 sequence (Q13421 other isoform, or with tags, fused parts or gaps): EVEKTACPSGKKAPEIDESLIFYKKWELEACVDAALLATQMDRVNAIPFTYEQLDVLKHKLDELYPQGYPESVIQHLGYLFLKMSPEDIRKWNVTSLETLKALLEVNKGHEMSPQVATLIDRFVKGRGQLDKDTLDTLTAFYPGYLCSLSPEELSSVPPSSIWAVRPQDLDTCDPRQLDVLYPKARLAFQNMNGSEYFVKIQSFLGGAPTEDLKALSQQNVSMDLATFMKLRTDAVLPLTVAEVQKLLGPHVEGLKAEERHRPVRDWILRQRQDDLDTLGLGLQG

Row | Binder | competition rate [1] [%] | competition rate [2] [%] | competition rate [3] [%] | Kd [4] [nM] | koff [4] [s⁻¹] | kon [4] [M⁻¹ s⁻¹] | competition rate [5] [%] | competition rate [6] [%] | competition rate [7] [%] | competition rate [8] [%] | competition rate [9] [%] | competition rate [10] [%] | competition rate [11] [%] | competition rate [12] [%] | competition rate [13] [%]
1 | B1 | -18 | -401 | -51 | 1.51 | 0.00164 | 1.09e+06 | -740 | 88 | 103 | 31 | 98 | 18 | -156 | -34 | -401
2 | B2 | 4 | 63 | 29 | 15.8 | 0.00143 | 90600 | 54 | -17 | -81 | 2 | -5 | 32 | -29 | -31 | 74
3 | B3 | -12 | -484 | -42 | 5.13 | 0.0103 | 2.01e+06 | -975 | 56 | 88 | 23 | 82 | 31 | -158 | -88 | -324
4 | B4 | 61 | -70 | 3 | 8.71 | 0.000714 | 81900 | -1080 | 2 | -42 | 97 | 23 | 69 | 85 | 90 | 24

Reference: patent US20250250357A1 (NANJING ZAIMING PHARMACEUTICAL, published 2025)
